{"source": "IntAct's records for PubMed 34075876", "parents": {"B1": {"name": "Protein TOPLESS (Arabidopsis thaliana (Mouse-ear cress)), Q94AI7 (parent)", "chain": "MSSLSRELVFLILQFLDEEKFKETVHKLEQESGFFFNMKYFEDEVHNGNWDEVEKYLSGFTKVDDNRYSMKIFFEIRKQKYLEALDKHDRPKAVDILVKDLKVFSTFNEELFKEITQLLTLENFRENEQLSKYGDTKSARAIMLVELKKLIEANPLFRDKLQFPTLRNSRLRTLINQSLNWQHQLCKNPRPNPDIKTLFVDHSCGPPNGARAPSPVNNPLLGGIPKAGGFPPLGAHGPFQPTASPVPTPLAGWMSSPSSVPHPAVSAGAIALGGPSIPAALKHPRTPPTNASLDYPSADSEHVSKRTRPMGISDEVNLGVNMLPMSFSGQAHGHSPAFKAPDDLPKTVARTLSQGSSPMSMDFHPIKQTLLLVGTNVGDIGLWEVGSRERLVQKTFKVWDLSKCSMPLQAALVKEPVVSVNRVIWSPDGSLFGVAYSRHIVQLYSYHGGEDMRQHLEIDAHVGGVNDISFSTPNKQLCVITCGDDKTIKVWDAATGVKRHTFEGHEAPVYSVCPHYKENIQFIFSTALDGKIKAWLYDNMGSRVDYDAPGRWCTTMAYSADGTRLFSCGTSKDGESFIVEWNESEGAVKRTYQGFHKRSLGVVQFDTTKNRYLAAGDDFSIKFWDMDAVQLLTAIDGDGGLQASPRIRFNKEGSLLAVSGNENVIKIMANSDGLRLLHTFENISSESSKPAINSIAAAAAAAATSAGHADRSANVVSIQGMNGDSRNMVDVKPVITEESNDKSKIWKLTEVSEPSQCRSLRLPENLRVAKISRLIFTNSGNAILALASNAIHLLWKWQRNERNATGKATASLPPQQWQPASGILMTNDVAETNPEEAVPCFALSKNDSYVMSASGGKISLFNMMTFKTMATFMPPPPAATFLAFHPQDNNIIAIGMDDSTIQIYNVRVDEVKSKLKGHSKRITGLAFSNVLNVLVSSGADAQLCVWNTDGWEKQRSKVLPLPQGRPNSAPSDTRVQFHQDQAHFLVVHETQLAIYETTKLECMKQWAVRESLAPITHATFSCDSQLVYASFMDATVCVFSSANLRLRCRVNPSAYLPASLSNSNVHPLVIAAHPQEPNMFAVGLSDGGVHIFEPLESEGKWGVAPPAENGSASGAPTAPSVGASASDQPQR", "partner": "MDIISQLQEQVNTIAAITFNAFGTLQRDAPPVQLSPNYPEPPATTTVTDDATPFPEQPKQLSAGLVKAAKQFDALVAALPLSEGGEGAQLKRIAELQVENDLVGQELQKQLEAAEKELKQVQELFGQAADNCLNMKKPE"}, "B2": {"name": "Protein TOPLESS (Arabidopsis thaliana (Mouse-ear cress)), Q94AI7 (parent)", "chain": "B1 chain", "partner": "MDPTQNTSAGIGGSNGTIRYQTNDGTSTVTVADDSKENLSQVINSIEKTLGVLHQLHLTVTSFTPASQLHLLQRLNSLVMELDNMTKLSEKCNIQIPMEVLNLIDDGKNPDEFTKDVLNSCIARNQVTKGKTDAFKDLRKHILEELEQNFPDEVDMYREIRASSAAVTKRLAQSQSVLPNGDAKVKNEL"}}}
{"variants_of": "B1", "conditions": "with med21_arath MED21, C0LU16"}
{"variant": "E146A", "effect of a mutation on the interaction": "decreasing interaction strength"}
{"variant": "V145A", "effect of a mutation on the interaction": "decreasing interaction strength"}
{"variant": "K149A", "effect of a mutation on the interaction": "decreasing interaction strength"}
{"variant": "K148A", "effect of a mutation on the interaction": "decreasing interaction strength"}
{"variants_of": "B1", "conditions": "with med21_arath MED21, C0LU16", "remark": "another data set of the same source"}
{"variant": "V145A;E146A;K148A;K149A", "effect of a mutation on the interaction": "disrupting interaction strength"}
{"variants_of": "B2", "conditions": "with md10b_arath MED10B"}
{"variant": "V145A;E146A;K148A;K149A", "effect of a mutation on the interaction": "decreasing interaction strength"}
